The record followed here is patent US20150011462A1 (Novo Nordisk, published 2015).

Numbered stars: 1 amine (or outer) side, 2 acyl side, 3 side chain; on linkers, the order of the positions; unused ones are H or OH. Square brackets hold non-standard residues; d marks the D form. Side chains are listed from the residue outwards. Ends that are not written are not given here. * marks the point of attachment. C22 diacid = O=C(O)CCCCCCCCCCCCCCCCCCCCC(=O)*; C20 diacid = O=C(O)CCCCCCCCCCCCCCCCCCC(=O)*; γGlu = O=C(O)[C@H](CCC(=O)[*:2])N[*:1]; εLys = N[C@@H](CCCCN[*:1])C(=O)[*:2]; Trx = NC[C@H]1CC[C@H](C(=O)O)CC1; AEEA = NCCOCCOCC(=O)O; Aib = CC(C)(N)C(=O)O

Assay [1] concerns the target T1, human GLP-1 receptor (human, UniProt P43220 24-463).
T1 construct: whole, on cells
Put plainly: competitive binding (SPA): displacement of 125I-GLP-1(7-36)NH2 from BHK cell membranes with human GLP-1 receptor; low HSA (max. 0.001% final). For orientation: In a radioligand displacement assay an active substance lowers the binding of a labelled ligand.
Procedure: (§1) For the receptor binding assay in the presence of low HSA (0.005%) 50 μl of the assay buffer was added to each well of an assay plate. […] For the receptor binding assay in the presence of high HSA (2%) 50 μl of the 8% albumin stock was added to each well of an assay plate. […] Cell membrane aliquots were thawed and diluted to their working concentration. Fifty μl were added to each well in the assay plate. […] WGA SPA beads were suspended in assay buffer at 20 mg/ml. The suspension was diluted to 10 mg/ml in assay buffer just prior to addition to the assay plate. Fifty μl were added to each well in the assay plate. […] A 25 μl aliquot was reserved for measuring total counts/well. […] The assay plate was incubated for 2 h at 30° C. […] The assay plate was centrifuged for 10 min. […] The assay plate was read in a Packard TopCount NXT instrument.

Assay [2] addresses T1, human GLP-1 receptor. Put plainly: competitive binding (SPA): displacement of 125I-GLP-1(7-36)NH2 from BHK cell membranes with human GLP-1 receptor; high HSA (2.0% final).
Procedure: as §1
The target in assay [3] is T1, human GLP-1 receptor. Briefly: cell-based or functional assay.

B1: N{Alpha}([Aib8,Glu22,Arg26,Arg34]-GLP-1-(7-37)-peptidyl)-N{Epsilon}[2-[2-[2-[[2-[2-[2-[[2-[2-[2-[[2-[2-[2-[[2-[2-[2-[[(2S)-2-amino-6-[[(2S)-2-amino-6-(19-carbox … (peptide)
peptide: H[Aib]EGTFTSDVSSYLEEQAAREFIAWLVRGRGK([AEEA-AEEA-AEEA-AEEA-AEEA-εLys-εLys-C20 diacid])GGSK([AEEA-AEEA-AEEA-AEEA-AEEA-εLys-εLys-C20 diacid])
notes: Double-acylated, C-terminally extended GLP-1 analogue made by SPPS; also called 27
A word on the IC50: it is the concentration at which inhibition is half-maximal. Read a high IC50 as a need for much substance. With B1, the IC50 in assay [1] is 0.08 nM; in assay [2] it was 30 nM. Further, in assay [3], the “EC50 (pM), in vitro potency, CRE luciferase reporter gene assay in BHK cells expressing the human GLP-1 receptor” value (“EC50 (pM), in vitro potency” for short) turned out to be 4.4 pM.

B2: N{Alpha}([Aib8,Glu22,Arg26,Arg34]-GLP-1-(7-37)-peptidyl)-N{Epsilon}[(2S)-2-amino-6-[[(2S)-2-amino-6-[[(4S)-4-carboxy-4-[[4-[(19-carboxynonadecanoylamino)methyl] … (peptide)
peptide: H[Aib]EGTFTSDVSSYLEEQAAREFIAWLVRGRGK([εLys-εLys-γGlu-Trx-C20 diacid])GGSK([εLys-εLys-γGlu-Trx-C20 diacid])
notes: Double-acylated, C-terminally extended GLP-1 analogue made by SPPS
In the case of B2, the 50% inhibitory concentration (IC50) in assay [1] came to 2.2 nM; in assay [2], 197 nM. In addition, the “EC50 (pM), in vitro potency” value in assay [3] worked out at 381 pM.

B3: N{Alpha}Aib8,Glu22,Arg26,Arg34]-GLP-1-(7-37)-peptidyl)-N{Epsilon}[2-[2-[2-[[2-[2-[2-[[(4S)-4-carboxy-4-[[4-[(21-carboxyhenicosanoylamino)methyl]cyclohexanecarbo … (peptide)
peptide: H[Aib]EGTFTSDVSSYLEEQAAREFIAWLVRGRGK([AEEA-AEEA-γGlu-Trx-C22 diacid])GGSK([AEEA-AEEA-γGlu-Trx-C22 diacid])
notes: as for B2
Regarding B3, the IC50 in assay [1] was 1.6 nM; in assay [2], 21 nM. For the same molecule, the “EC50 (pM), in vitro potency” value in assay [3] turned out to be 101 pM.

B4: N{Alpha}([Aib8,Glu22,Arg26,Arg34]-GLP-1-(7-37)-peptidyl)-N{Epsilon}[2-[2-[2-[[2-[2-[2-[[2-[2-[2-[[2-[2-[2-[[2-[2-[2-[[2-[2-[2-[[(2S)-2-amino-6-[[(2S)-2-amino-6- … (peptide)
peptide: H[Aib]EGTFTSDVSSYLEEQAAREFIAWLVRGRGK([AEEA-AEEA-AEEA-AEEA-AEEA-AEEA-εLys-εLys-C20 diacid])GGSK([AEEA-AEEA-AEEA-AEEA-AEEA-AEEA-εLys-εLys-C20 diacid])
notes: Double-acylated, C-terminally extended GLP-1 analogue made by SPPS; also called 28
As for B4, the IC50 in assay [1] was determined as 0.05 nM; in assay [2], 30 nM. The “EC50 (pM), in vitro potency” value in assay [3] is 3.4 pM.
